# B1: ADCx19 (antibody, V domains shown)
# VH: QVQLVQPGAEVVKPGASVKLSCKTSGYTFTSNWMHWVKQAPGQGLEWIGEIDPSDSYTNYNQNFQGKAKLTVDKSTSTAYMEVSSLRSDDTAVYYCARGSNPYYYAMDYWGQGTSVTVS
# VL: EIVLTQSPAIMSASPGERVTMTCSASSGVNYMHWYQQKPGTSPRRWIYDTSKLASGVPARFSGSGSGTSYSLTISSMEPEDAATYYCHQRGSYTFGGGTKLEIK
# modifications: pyrrolobenzodiazepine (PBD) dimer warhead attached via a cleavable linker, DAR 2+/-0.3; attachment residues not stated
# Target: T1, CD19 (human, UniProt P15391 20-556)
# T1 sequence (looked up): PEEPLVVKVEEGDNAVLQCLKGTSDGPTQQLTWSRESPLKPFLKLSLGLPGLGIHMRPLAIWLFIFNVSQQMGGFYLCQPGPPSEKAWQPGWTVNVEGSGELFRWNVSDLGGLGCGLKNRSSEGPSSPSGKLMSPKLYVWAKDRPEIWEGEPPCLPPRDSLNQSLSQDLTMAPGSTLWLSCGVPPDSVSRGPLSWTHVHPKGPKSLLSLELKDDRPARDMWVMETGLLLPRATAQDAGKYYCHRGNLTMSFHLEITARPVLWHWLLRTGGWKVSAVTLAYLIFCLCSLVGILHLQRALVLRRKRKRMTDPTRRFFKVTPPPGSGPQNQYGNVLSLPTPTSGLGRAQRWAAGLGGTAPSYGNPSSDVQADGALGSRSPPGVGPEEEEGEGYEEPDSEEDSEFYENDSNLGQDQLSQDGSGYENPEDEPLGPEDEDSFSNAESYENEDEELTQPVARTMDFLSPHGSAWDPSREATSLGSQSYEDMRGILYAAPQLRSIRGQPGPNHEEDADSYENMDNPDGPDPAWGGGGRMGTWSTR
# Test: cell-based or functional assay
binder,measurement,value
B1,"IC50, MTT proliferation assay, 96 h exposure, median over 48 B-cell lymphoma cell lines",4 pM
